{
  "source": "paper doi:10.1101/2019.12.11.872267",
  "about": "(bioRxiv, 2019)",
  "molecular_target": "the molecule itself",
  "assay": "negative stain electron microscopy",
  "data": [
    {"protein": "Drosophila P5CS, purified from E. coli (enzyme, UniProt Q9VNW6 1-776, looked up) MLQNSFKLAQSLRNGFYRNAWRAFSSHGPRQPLVSPERRLEKAHPTFTERSQLKYARRLVVKLGSAVITREDNHGLALGRLASIVEQVAECHLEGREVMMVTSGAVAFGKQKLAQELLMSLSMRETLNPKDSKEFDGATLEPRAAAAVGQSGLMSLYDAMFAQYGVKIAQVLVTKPDFYNEETRNNLFCTLSELISLNIVPIINTNDAVSPPMFIRDDEPAGGARRGIPIKDNDSLSAMLAAEVQADLLILMSDVDGIYNKPPWEDGAKLMHTYTSDDSNSIEFGKKSKVGTGGMDSKVKAATWALDRGVSVVICNGMQEKAIKTIIGGRKVGTFFTEATESANAVPVEVMAENARTGSRQMQALTPAQRASAVNTLADLLVSREKFILDANAKDLAEAQKSGLAKPLLSRLSLNPAKLKNLSVGLKQIAEDSHKNVGRVLRRTRLADQLELKQVTVPIGVLLVIFESRPDSLPQVAALAMASANGLLLKGGKEAAHSNKALMELVKEALATVGAEHAVSLVSTREEISDLLSMENHIDLIIPRGSSDLVRSIQQQSLHIPVLGHAEGVCHVYIDRDADLEKALRIARDAKCDYPAACNAMETLLIHEDLMSGAIFGDVCNMLKREGVKIYAGPRLNQQLTFGPPAAKSLKHEYGALECCIEVVPSLDEAINHIHTYGSSHTDVIVTENDAAARQFLGSVDSACVFHNASSRFADGFRFGLGAEVGISTARIHARGPVGVEGLLTTKWILEGQDHAAADFAEGGGRTWLHETLPLD", "values": [
      {"measurement": "binding result", "value": "binds"}
    ]}
  ]
}
